Data taken from patent US20160319016A1 (GOVERNMENT OF THE UNITED STATES OF AMERICA AS REPRESENTED …, published 2016).

Molecular target: T1, CMG2 (UniProt P58335 34-489, limits assumed)
T1 construct: whole, on cells; also called ANTXR2; CHO/CMG2
Assay: flow cytometry on CHO/CMG2 cells

binding result: no binding
B1: AF334 anti-TEM8 monoclonal antibody (antibody, V domains shown)
VH: QVKLEESGAELVRPGVSVKISCKGSGYTFTDYAMHWVKQSHAKSLEWIGVISTYFGDATYNQKFKGKATMTVDKSSSTAYMELARLTSEDSAIYYCAREDYVPFAYWGQGTLVTVSA
VL: DIVMTQTPPSVPVTPGESVSISCRSSKSLLHSNGNTYLYWFLQRPGQSPQLLIYRMSNLASGVPDRFSGSGSGTAFTLRISRVEAEDVGVYYCMQHLEYPFTFGSGTKLEIKR
